Laboratory results reported in publication PMC12102759.

B1: PAIP1 peptide 126-141 (Polyadenylate-binding protein-interacting protein 1), 16-mer library wild type / PABPC1 PABC (PABPC1 PABC domain, residues 544-623) (parent)
chain 1: SKLSVNAPEFYPSGYS
chain 2: PLTASMLASAPPQEQKQMLGERLFPLIQAMHPTLAGKITGMLLEIDNSELLHMLESPESLRSKVDEAVAVLQAHQAKEAA
B2: PEX5 peptide 238-253 (Peroxisomal targeting signal 1 receptor), 16-mer library wild type / PEX14 Pex14 (PEX14 PEX14, residues 16-84) (parent)
chain 1: AQAEQWAAEFIQQQGT
chain 2: TPGSENVLPREPLIATAVKFLQNSRVRQSPLATRRAFLKKKGLTDEEIDMAFQQSGTAADEPSSLGPAT

Variants of: B1
Experiment: proteomic peptide phage display deep mutational scan (ProP-PD DMS): M13 P8 16-mer library selected against immobilised GST-tagged bait for four days (rounds), NGS of the eluted pools per day and pseudo-replica
Conditions: with PABPC1 PABC (PABPC1 PABC domain, residues 544-623); bait immobilised on MaxiSorp plates (10 µg), library pre-cleared on GST, 2 h binding at 4 °C, five washes; one round per day, days 1-4; value from days 2 and 3; keep out of graded; scale: average fractional NGS count over selection days 2 and 3

screen value | Variant
0.00076 | chain 1 IKLSVNAPEFYPSGYS [chain 1 S1I]
0.00037 | chain 1 KKLSVNAPEFYPSGYS [chain 1 S1K]
0.00185 | chain 1 LKLSVNAPEFYPSGYS [chain 1 S1L]
0.0011 | chain 1 MKLSVNAPEFYPSGYS [chain 1 S1M]
0.000154 | chain 1 NKLSVNAPEFYPSGYS [chain 1 S1N]
0.000196 | chain 1 PKLSVNAPEFYPSGYS [chain 1 S1P]
0.000406 | chain 1 QKLSVNAPEFYPSGYS [chain 1 S1Q]
7.1e-05 | chain 1 RKLSVNAPEFYPSGYS [chain 1 S1R]
0.000196 | chain 1 VKLSVNAPEFYPSGYS [chain 1 S1V]
0.000299 | chain 1 WKLSVNAPEFYPSGYS [chain 1 S1W]
0.000342 | chain 1 YKLSVNAPEFYPSGYS [chain 1 S1Y]
0.00227 | chain 1 SKLAVNAPEFYPSGYS [chain 1 S4A]
0 | chain 1 SKLDVNAPEFYPSGYS [chain 1 S4D]
0.000106 | chain 1 SKLEVNAPEFYPSGYS [chain 1 S4E]
0.000754 | chain 1 SKLFVNAPEFYPSGYS [chain 1 S4F]
0.000919 | chain 1 SKLGVNAPEFYPSGYS [chain 1 S4G]
0.000353 | chain 1 SKLKVNAPEFYPSGYS [chain 1 S4K]
0.000589 | chain 1 SKLLVNAPEFYPSGYS [chain 1 S4L]
8.55e-05 | chain 1 SKLMVNAPEFYPSGYS [chain 1 S4M]
8.32e-05 | chain 1 SKLNVNAPEFYPSGYS [chain 1 S4N]
0.000535 | chain 1 SKLPVNAPEFYPSGYS [chain 1 S4P]

screen value | Variant
0.00694 | chain 1 SKLQVNAPEFYPSGYS [chain 1 S4Q]
0.000365 | chain 1 SKLRVNAPEFYPSGYS [chain 1 S4R]
0.000487 | chain 1 SKLTVNAPEFYPSGYS [chain 1 S4T]
9.02e-05 | chain 1 SKLVVNAPEFYPSGYS [chain 1 S4V]
0.000225 | chain 1 SKLYVNAPEFYPSGYS [chain 1 S4Y]
0 | chain 1 SKLSVNAPEFYPDGYS [chain 1 S13D]
0.000161 | chain 1 SKLSVNAPEFYPEGYS [chain 1 S13E]
0.000556 | chain 1 SKLSVNAPEFYPFGYS [chain 1 S13F]
4.28e-05 | chain 1 SKLSVNAPEFYPGGYS [chain 1 S13G]
0.000367 | chain 1 SKLSVNAPEFYPHGYS [chain 1 S13H]
0.000936 | chain 1 SKLSVNAPEFYPIGYS [chain 1 S13I]
0.000235 | chain 1 SKLSVNAPEFYPLGYS [chain 1 S13L]
0.000419 | chain 1 SKLSVNAPEFYPMGYS [chain 1 S13M]
0.00287 | chain 1 SKLSVNAPEFYPNGYS [chain 1 S13N]
0 | chain 1 SKLSVNAPEFYPPGYS [chain 1 S13P]
0 | chain 1 SKLSVNAPEFYPQGYS [chain 1 S13Q]
0.000104 | chain 1 SKLSVNAPEFYPVGYS [chain 1 S13V]
0.00035 | chain 1 SKLSVNAPEFYPYGYS [chain 1 S13Y]
0.00035 | chain 1 SKLSANAPEFYPSGYS [chain 1 V5A]
9.64e-06 | chain 1 SKLSGNAPEFYPSGYS [chain 1 V5G]
0.000797 | chain 1 SKLSHNAPEFYPSGYS [chain 1 V5H]

screen value | Variant
0.000215 | chain 1 SKLSKNAPEFYPSGYS [chain 1 V5K]
0.000898 | chain 1 SKLSLNAPEFYPSGYS [chain 1 V5L]
0.000169 | chain 1 SKLSMNAPEFYPSGYS [chain 1 V5M]
0.000152 | chain 1 SKLSNNAPEFYPSGYS [chain 1 V5N]
0.00187 | chain 1 SKLSPNAPEFYPSGYS [chain 1 V5P]
0.00077 | chain 1 SKLSQNAPEFYPSGYS [chain 1 V5Q]
0.000262 | chain 1 SKLSRNAPEFYPSGYS [chain 1 V5R]
0.00056 | chain 1 SKLSSNAPEFYPSGYS [chain 1 V5S]
0 | chain 1 SKLSYNAPEFYPSGYS [chain 1 V5Y]
0.000962 | chain 1 SKLSVNAPEFAPSGYS [chain 1 Y11A]
0.000603 | chain 1 SKLSVNAPEFDPSGYS [chain 1 Y11D]
0.00111 | chain 1 SKLSVNAPEFEPSGYS [chain 1 Y11E]
0.000586 | chain 1 SKLSVNAPEFFPSGYS [chain 1 Y11F]
0.000528 | chain 1 SKLSVNAPEFGPSGYS [chain 1 Y11G]
0.000612 | chain 1 SKLSVNAPEFHPSGYS [chain 1 Y11H]
0.000574 | chain 1 SKLSVNAPEFIPSGYS [chain 1 Y11I]
0.000481 | chain 1 SKLSVNAPEFKPSGYS [chain 1 Y11K]
0.00117 | chain 1 SKLSVNAPEFLPSGYS [chain 1 Y11L]
0.00123 | chain 1 SKLSVNAPEFMPSGYS [chain 1 Y11M]
0.000309 | chain 1 SKLSVNAPEFNPSGYS [chain 1 Y11N]
0.00111 | chain 1 SKLSVNAPEFQPSGYS [chain 1 Y11Q]

screen value | Variant
0.000552 | chain 1 SKLSVNAPEFRPSGYS [chain 1 Y11R]
0.000332 | chain 1 SKLSVNAPEFSPSGYS [chain 1 Y11S]
0.000142 | chain 1 SKLSVNAPEFTPSGYS [chain 1 Y11T]
0.00109 | chain 1 SKLSVNAPEFVPSGYS [chain 1 Y11V]
0.000643 | chain 1 SKLSVNAPEFWPSGYS [chain 1 Y11W]
0.00116 | chain 1 SKLSVNAPEFYPSGAS [chain 1 Y15A]
0.000552 | chain 1 SKLSVNAPEFYPSGDS [chain 1 Y15D]
7.22e-05 | chain 1 SKLSVNAPEFYPSGES [chain 1 Y15E]
0.000589 | chain 1 SKLSVNAPEFYPSGFS [chain 1 Y15F]
0.000264 | chain 1 SKLSVNAPEFYPSGHS [chain 1 Y15H]
7.69e-05 | chain 1 SKLSVNAPEFYPSGIS [chain 1 Y15I]
0.00083 | chain 1 SKLSVNAPEFYPSGKS [chain 1 Y15K]
0.000221 | chain 1 SKLSVNAPEFYPSGLS [chain 1 Y15L]
4.17e-05 | chain 1 SKLSVNAPEFYPSGMS [chain 1 Y15M]
0.000304 | chain 1 SKLSVNAPEFYPSGNS [chain 1 Y15N]
0.000411 | chain 1 SKLSVNAPEFYPSGQS [chain 1 Y15Q]
0.00115 | chain 1 SKLSVNAPEFYPSGRS [chain 1 Y15R]
0.00124 | chain 1 SKLSVNAPEFYPSGSS [chain 1 Y15S]
0.000348 | chain 1 SKLSVNAPEFYPSGTS [chain 1 Y15T]
0.000741 | chain 1 SKLSVNAPEFYPSGVS [chain 1 Y15V]
0.000396 | chain 1 SKLSVNAPEFYPSGWS [chain 1 Y15W]

Variants of: B2
Experiment: as above
Conditions: with PEX14 Pex14 (PEX14 PEX14, residues 16-84); bait immobilised on MaxiSorp plates (10 µg), library pre-cleared on GST, 2 h binding at 4 °C, five washes; one round per day, days 1-4; value from days 2 and 3; keep out of graded; scale: average fractional NGS count over selection days 2 and 3

screen value | Variant
0.000241 | chain 1 AQDEQWAAEFIQQQGT [chain 1 A3D]
0.000385 | chain 1 AQEEQWAAEFIQQQGT [chain 1 A3E]
0.000791 | chain 1 AQGEQWAAEFIQQQGT [chain 1 A3G]
0 | chain 1 AQIEQWAAEFIQQQGT [chain 1 A3I]
0 | chain 1 AQLEQWAAEFIQQQGT [chain 1 A3L]
0.000674 | chain 1 AQMEQWAAEFIQQQGT [chain 1 A3M]
0.00244 | chain 1 AQNEQWAAEFIQQQGT [chain 1 A3N]
0.000153 | chain 1 AQPEQWAAEFIQQQGT [chain 1 A3P]
0.000376 | chain 1 AQSEQWAAEFIQQQGT [chain 1 A3S]
0.000152 | chain 1 AQTEQWAAEFIQQQGT [chain 1 A3T]
